The values below come from PMC7954794, “Protein context shapes the specificity of SH3 domain-mediated interactions in vivo” (Nature Communications, 2021).

What all share (format): cell-based, Saccharomyces cerevisiae
The test system of one assay is Hua2. Put plainly: Deep mutational scanning of Abp1 SH3, Abp1-Hua2 DHFR-PCA (DMS score). Particulars: for HUA2_MTX2 (frequency normalized to the reference condition): Abp1 SH3 amino acid mutation; for HUA2_MTX2 (frequency normalized to the reference condition) / HUA2_MTX2 (frequencies normalized to the reference condition): MTX2. In a few lines: (§1)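 Saturation mutagenesis (NNN per codon) of Abp1 SH3, reintegrated at the genomic locus in yeast and mated with Hua2- or Lsb3-DHFR F[3] prey strains. Diploids underwent two rounds of liquid DHFR-PCA selection (72 h each, 30 °C), in biological duplicate. Mutant abundance was tracked by Illumina sequencing against the pre-selection reference.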

Another assay deals with Lsb3. As to the kind of experiment: Deep mutational scanning of Abp1 SH3, Abp1-Lsb3 DHFR-PCA (DMS score). As to conditions: for LSB3_MTX2 (frequency normalized to the reference condition): Abp1 SH3 amino acid mutation; for LSB3_MTX2 (frequency normalized to the reference condition) / LSB3_MTX2 (frequencies normalized to the reference condition): MTX2. Summed up: as §1
The test system of assay [1] is Hua2 and Lsb3. Put plainly: Deep mutational scanning quadrant of Abp1 SH3 (Hua2 and Lsb3 DMS scores). Particulars: class of mutation by HUA2 and LSB3 DMS scores.
Assay [2] has as its system Hua2 and Lsb3. Put plainly: Deep mutational scanning of Abp1 SH3: combined class (quadrant) from Abp1-Hua2 and Abp1-Lsb3 DHFR-PCA. Particulars: class by DMS scores with Hua2 and Lsb3 (Neutral, Dest. both, Dest. Hua2, Dest. Lsb3).
Assay [3] deals with Hua2 and Lsb3. As to the kind of experiment: Deep mutational scanning of Abp1 SH3, quadrant classification from Hua2 and Lsb3 DMS scores. Particulars: class from hua2sc and lsb3sc.
The mark [4] stands for this setting: frequencies scaled to the synonymous mutation distribution, HUA2 prey.
[5] abbreviates: frequencies scaled to the synonymous mutation distribution, LSB3 prey.
Where [6] appears, read: Abp1-Hua2 DHFR-PCA, frequencies normalized to the reference condition.
The mark [7] stands for this setting: Hua2, frequencies scaled to the synonymous mutation distribution (DMS score).
Setting [8] is: Abp1-Lsb3 DHFR-PCA, frequencies normalized to the reference condition.
The mark [9] stands for this setting: Lsb3, frequencies scaled to the synonymous mutation distribution (DMS score).

B1: ABP1 A3A (protein, UniProt P15891 2-592, looked up)
Actin-binding protein: ALEPIDYTTHSREIDAEYLKIVRGSDPDTTWLIISPNAKKEYEPESTGSSFHDFLQLFDETKVQYGLARVSPPGSDVEKIIIIGWCPDSAPLKTRASFAANFAAVANNLFKGYHVQVTARDEDDLDENELLMKISNAAGARYSIQTSSKQQGKASTPPVKKSFTPSKSPAPVSKKEPVKTPSPAPAAKISSRVNDNNDDDDWNEPELKERDFDQAPLKPNQSSYKPIGKIDLQKVIAEEKAKEDPRLVQKPTAAGSKIDPSSDIANLKNESKLKRDSEFNSFLGTTKPPSMTESSLKNDDDKVIKGFRNEKSPAQLWAERKAKQNSGNAETKAEAPKPEVPEDEPEGEPDVKDLKSKFEGLAASEKEEEEMENKFAPPPKKSEPTIISPKPFSKPQEPVKAEEAEQPKTDYKKIGNPLPGMHIEADNEEEPEENDDDWDDDEDEAAQPPLPSRNVASGAPVQKEEPEQEEIAPSLPSRNSIPAPKQEEAPEQAPEEEIEEEAEEAAPQLPSRSSAAPPPPPRRATPEKKPKENPWATAEYDYDAAEDNELTFVENDKIINIEFVDDDWWLGELEKDGSKGLFPSNYVSLGN
modifications: synonymous A3A codon
For the molecule B1, in the assay with Hua2 (HUA2 prey), the “HUA2_MTX2 (frequency normalized to the reference condition)” value is 1.172. In the assay on Hua2 (setting [4]), the “hua2sc (DMS score)” value is reported as -0.4405. The “LSB3_MTX2 (frequency normalized to the reference condition)” value in the assay with Lsb3 (LSB3 prey) is reported as 1.292. Further, the “lsb3sc (DMS score)” value in the assay with Lsb3 (setting [5]) is -0.2087. In the assay with Hua2 and Lsb3 [1], the quadrant entry was “Neutral”.

B2: ABP1 E29E (protein, UniProt P15891 2-592, looked up)
Actin-binding protein: ALEPIDYTTHSREIDAEYLKIVRGSDPDTTWLIISPNAKKEYEPESTGSSFHDFLQLFDETKVQYGLARVSPPGSDVEKIIIIGWCPDSAPLKTRASFAANFAAVANNLFKGYHVQVTARDEDDLDENELLMKISNAAGARYSIQTSSKQQGKASTPPVKKSFTPSKSPAPVSKKEPVKTPSPAPAAKISSRVNDNNDDDDWNEPELKERDFDQAPLKPNQSSYKPIGKIDLQKVIAEEKAKEDPRLVQKPTAAGSKIDPSSDIANLKNESKLKRDSEFNSFLGTTKPPSMTESSLKNDDDKVIKGFRNEKSPAQLWAERKAKQNSGNAETKAEAPKPEVPEDEPEGEPDVKDLKSKFEGLAASEKEEEEMENKFAPPPKKSEPTIISPKPFSKPQEPVKAEEAEQPKTDYKKIGNPLPGMHIEADNEEEPEENDDDWDDDEDEAAQPPLPSRNVASGAPVQKEEPEQEEIAPSLPSRNSIPAPKQEEAPEQAPEEEIEEEAEEAAPQLPSRSSAAPPPPPRRATPEKKPKENPWATAEYDYDAAEDNELTFVENDKIINIEFVDDDWWLGELEKDGSKGLFPSNYVSLGN
modifications: synonymous codon change E29E
Turning to B2, the “HUA2_MTX2 (frequencies normalized to the reference condition)” value in the assay on Hua2 (setting [6]) was 1.834. Besides, in the assay on Hua2 (setting [7]), the “hua2sc (DMS score)” value was determined as 0.2208. Also, the “LSB3_MTX2 (frequencies normalized to the reference condition)” value with Lsb3 (setting [8]) turned out to be 1.788. Also, in the assay with Lsb3 (setting [9]), the “lsb3sc (DMS score)” value is 0.2879. Also, the quadrant entry in the assay on Hua2 and Lsb3 [2] is “Neutral”.

B3: ABP1 I25I (protein, UniProt P15891 2-592, looked up)
Actin-binding protein: ALEPIDYTTHSREIDAEYLKIVRGSDPDTTWLIISPNAKKEYEPESTGSSFHDFLQLFDETKVQYGLARVSPPGSDVEKIIIIGWCPDSAPLKTRASFAANFAAVANNLFKGYHVQVTARDEDDLDENELLMKISNAAGARYSIQTSSKQQGKASTPPVKKSFTPSKSPAPVSKKEPVKTPSPAPAAKISSRVNDNNDDDDWNEPELKERDFDQAPLKPNQSSYKPIGKIDLQKVIAEEKAKEDPRLVQKPTAAGSKIDPSSDIANLKNESKLKRDSEFNSFLGTTKPPSMTESSLKNDDDKVIKGFRNEKSPAQLWAERKAKQNSGNAETKAEAPKPEVPEDEPEGEPDVKDLKSKFEGLAASEKEEEEMENKFAPPPKKSEPTIISPKPFSKPQEPVKAEEAEQPKTDYKKIGNPLPGMHIEADNEEEPEENDDDWDDDEDEAAQPPLPSRNVASGAPVQKEEPEQEEIAPSLPSRNSIPAPKQEEAPEQAPEEEIEEEAEEAAPQLPSRSSAAPPPPPRRATPEKKPKENPWATAEYDYDAAEDNELTFVENDKIINIEFVDDDWWLGELEKDGSKGLFPSNYVSLGN
modifications: synonymous codon change I25
Regarding B3, the “HUA2_MTX2 (frequencies normalized to the reference condition)” value in the assay on Hua2 (setting [6]) is reported as 1.723. Besides, the “hua2sc (DMS score)” value in the assay with Hua2 (setting [7]) is listed as 0.1101. Moreover, the “LSB3_MTX2 (frequencies normalized to the reference condition)” value in the assay on Lsb3 (setting [8]) stood at 1.319. The “lsb3sc (DMS score)” value in the assay on Lsb3 (setting [9]) was -0.181. Moreover, the quadrant result in the assay on Hua2 and Lsb3 [2] is on record as “Neutral”.

B4: ABP1 N27N (protein, UniProt P15891 2-592, looked up)
Actin-binding protein: ALEPIDYTTHSREIDAEYLKIVRGSDPDTTWLIISPNAKKEYEPESTGSSFHDFLQLFDETKVQYGLARVSPPGSDVEKIIIIGWCPDSAPLKTRASFAANFAAVANNLFKGYHVQVTARDEDDLDENELLMKISNAAGARYSIQTSSKQQGKASTPPVKKSFTPSKSPAPVSKKEPVKTPSPAPAAKISSRVNDNNDDDDWNEPELKERDFDQAPLKPNQSSYKPIGKIDLQKVIAEEKAKEDPRLVQKPTAAGSKIDPSSDIANLKNESKLKRDSEFNSFLGTTKPPSMTESSLKNDDDKVIKGFRNEKSPAQLWAERKAKQNSGNAETKAEAPKPEVPEDEPEGEPDVKDLKSKFEGLAASEKEEEEMENKFAPPPKKSEPTIISPKPFSKPQEPVKAEEAEQPKTDYKKIGNPLPGMHIEADNEEEPEENDDDWDDDEDEAAQPPLPSRNVASGAPVQKEEPEQEEIAPSLPSRNSIPAPKQEEAPEQAPEEEIEEEAEEAAPQLPSRSSAAPPPPPRRATPEKKPKENPWATAEYDYDAAEDNELTFVENDKIINIEFVDDDWWLGELEKDGSKGLFPSNYVSLGN
modifications: synonymous change N27N in SH3 domain
On to B4, for which the “HUA2_MTX2 (frequencies normalized to the reference condition)” value with Hua2 (setting [6]) came to 1.61. The “hua2sc (DMS score)” value in the assay on Hua2 (setting [7]) is reported as -0.002773. For the same molecule, in the assay with Lsb3 (setting [8]), the “LSB3_MTX2 (frequencies normalized to the reference condition)” value is 1.694. Also, the “lsb3sc (DMS score)” value in the assay on Lsb3 (setting [9]) is given as 0.1932. Besides, the quadrant result in the assay with Hua2 and Lsb3 [2] is on record as “Neutral”.

B5: ABP1 T4T (protein, UniProt P15891 2-592, looked up)
Actin-binding protein: ALEPIDYTTHSREIDAEYLKIVRGSDPDTTWLIISPNAKKEYEPESTGSSFHDFLQLFDETKVQYGLARVSPPGSDVEKIIIIGWCPDSAPLKTRASFAANFAAVANNLFKGYHVQVTARDEDDLDENELLMKISNAAGARYSIQTSSKQQGKASTPPVKKSFTPSKSPAPVSKKEPVKTPSPAPAAKISSRVNDNNDDDDWNEPELKERDFDQAPLKPNQSSYKPIGKIDLQKVIAEEKAKEDPRLVQKPTAAGSKIDPSSDIANLKNESKLKRDSEFNSFLGTTKPPSMTESSLKNDDDKVIKGFRNEKSPAQLWAERKAKQNSGNAETKAEAPKPEVPEDEPEGEPDVKDLKSKFEGLAASEKEEEEMENKFAPPPKKSEPTIISPKPFSKPQEPVKAEEAEQPKTDYKKIGNPLPGMHIEADNEEEPEENDDDWDDDEDEAAQPPLPSRNVASGAPVQKEEPEQEEIAPSLPSRNSIPAPKQEEAPEQAPEEEIEEEAEEAAPQLPSRSSAAPPPPPRRATPEKKPKENPWATAEYDYDAAEDNELTFVENDKIINIEFVDDDWWLGELEKDGSKGLFPSNYVSLGN
modifications: synonymous T4T codon change
Take B5: the “HUA2_MTX2 (frequency normalized to the reference condition)” value in the assay with Hua2 (HUA2 prey) was found to be 1.763. In addition, in the assay with Hua2 (setting [4]), the “hua2sc (DMS score)” value was determined as 0.1499. Also, the “LSB3_MTX2 (frequency normalized to the reference condition)” value in the assay with Lsb3 (LSB3 prey) came out at 1.639. In addition, in the assay on Lsb3 (setting [5]), the “lsb3sc (DMS score)” value was 0.1386. In addition, the quadrant result in the assay on Hua2 and Lsb3 [1] is on record as “Neutral”.

B6: ABP1 L37L (protein, UniProt P15891 2-592, looked up)
Actin-binding protein: ALEPIDYTTHSREIDAEYLKIVRGSDPDTTWLIISPNAKKEYEPESTGSSFHDFLQLFDETKVQYGLARVSPPGSDVEKIIIIGWCPDSAPLKTRASFAANFAAVANNLFKGYHVQVTARDEDDLDENELLMKISNAAGARYSIQTSSKQQGKASTPPVKKSFTPSKSPAPVSKKEPVKTPSPAPAAKISSRVNDNNDDDDWNEPELKERDFDQAPLKPNQSSYKPIGKIDLQKVIAEEKAKEDPRLVQKPTAAGSKIDPSSDIANLKNESKLKRDSEFNSFLGTTKPPSMTESSLKNDDDKVIKGFRNEKSPAQLWAERKAKQNSGNAETKAEAPKPEVPEDEPEGEPDVKDLKSKFEGLAASEKEEEEMENKFAPPPKKSEPTIISPKPFSKPQEPVKAEEAEQPKTDYKKIGNPLPGMHIEADNEEEPEENDDDWDDDEDEAAQPPLPSRNVASGAPVQKEEPEQEEIAPSLPSRNSIPAPKQEEAPEQAPEEEIEEEAEEAAPQLPSRSSAAPPPPPRRATPEKKPKENPWATAEYDYDAAEDNELTFVENDKIINIEFVDDDWWLGELEKDGSKGLFPSNYVSLGN
modifications: synonymous codon change L37L in SH3
With B6, in the assay with Hua2 and Lsb3 [3], the quadrant result is listed as “Neutral”. Moreover, in the assay with Hua2 (Abp1-Hua2, frequencies scaled to the synonymous mutation distribution (DMS score)), the “hua2sc (DMS score)” value was -0.0161. In addition, in the assay on Hua2 (Abp1-Hua2 DHFR-PCA, frequencies normalized to the reference condition, amino acid level), the HUA2_MTX2 is 1.597. The “lsb3sc (DMS score)” value in the assay with Lsb3 (Abp1-Lsb3, frequencies scaled to the synonymous mutation distribution (DMS score)) is on record as 0.2222. The molecule further came in with an LSB3_MTX2 in the assay with Lsb3 (Abp1-Lsb3 DHFR-PCA, frequencies normalized to the reference condition, amino acid level) of 1.722.
